From publication doi:10.1101/2020.12.21.423144 (bioRxiv, 2020)

What follows are proteins tested against P29274 (assay: SEC).

Protein | HMW oligomer level (relative to monomer) | total oligomer level (HMW oligomer and dimer, relative to monomer)
A2AR-FL-ERR:AAA (receptor) MPIMGSSVYITVELAIAVLAILGNVLVCWAVWLNSNLQNVTNYFVVSLAAADIAVGVLAIPFAITISTGFCAACHGCLFIACFVLVLTQSSIFSLLAIAIDRYIAIRIPLRYNGLVTGTRAKGIIAICWVLSFAIGLTPMLGWNNCGQPKEGKNHSQGCGEGQVACLFEDVVPMNYMVYFNFFACVLVPLLLMLGVYLRIFLAARRQLKQMESQPLPGERARSTLQKEVHAAKSLAIIVGLFALCWLPLHIINCFTFFCPDCSHAPLWLMYLAIVLSHTNSVVNPFIYAYRIREFRQTFRKIIRSHVLRQQEPFKAAGTSARVLAAHGSDGEQVSLRLNGHPPGVWANGSAPHPAAAPNGYALGLVSGGSAQESQGNTGLPDVELLSHELKGVCPEPPGLDDPLAQDGAGVS | ERR:AAA: 0.66 | ERR:AAA: 0.94
A2AR-N359ΔC (protein) MPIMGSSVYITVELAIAVLAILGNVLVCWAVWLNSNLQNVTNYFVVSLAAADIAVGVLAIPFAITISTGFCAACHGCLFIACFVLVLTQSSIFSLLAIAIDRYIAIRIPLRYNGLVTGTRAKGIIAICWVLSFAIGLTPMLGWNNCGQPKEGKNHSQGCGEGQVACLFEDVVPMNYMVYFNFFACVLVPLLLMLGVYLRIFLAARRQLKQMESQPLPGERARSTLQKEVHAAKSLAIIVGLFALCWLPLHIINCFTFFCPDCSHAPLWLMYLAIVLSHTNSVVNPFIYAYRIREFRQTFRKIIRSHVLRQQEPFKAAGTSARVLAAHGSDGEQVSLRLNGHPPGVWANGSAPHPERRPN | ctrl: 0.68 | ctrl: 1.01

Biological target: the molecule itself
Experiment: SEC

Protein | dimer level (relative to monomer) [arbitrary units] | binding result
A2AR-FL-ERR:AAA (receptor) MPIMGSSVYITVELAIAVLAILGNVLVCWAVWLNSNLQNVTNYFVVSLAAADIAVGVLAIPFAITISTGFCAACHGCLFIACFVLVLTQSSIFSLLAIAIDRYIAIRIPLRYNGLVTGTRAKGIIAICWVLSFAIGLTPMLGWNNCGQPKEGKNHSQGCGEGQVACLFEDVVPMNYMVYFNFFACVLVPLLLMLGVYLRIFLAARRQLKQMESQPLPGERARSTLQKEVHAAKSLAIIVGLFALCWLPLHIINCFTFFCPDCSHAPLWLMYLAIVLSHTNSVVNPFIYAYRIREFRQTFRKIIRSHVLRQQEPFKAAGTSARVLAAHGSDGEQVSLRLNGHPPGVWANGSAPHPAAAPNGYALGLVSGGSAQESQGNTGLPDVELLSHELKGVCPEPPGLDDPLAQDGAGVS | 0.29 | 
A2AR-C394S (receptor) MPIMGSSVYITVELAIAVLAILGNVLVCWAVWLNSNLQNVTNYFVVSLAAADIAVGVLAIPFAITISTGFCAACHGCLFIACFVLVLTQSSIFSLLAIAIDRYIAIRIPLRYNGLVTGTRAKGIIAICWVLSFAIGLTPMLGWNNCGQPKEGKNHSQGCGEGQVACLFEDVVPMNYMVYFNFFACVLVPLLLMLGVYLRIFLAARRQLKQMESQPLPGERARSTLQKEVHAAKSLAIIVGLFALCWLPLHIINCFTFFCPDCSHAPLWLMYLAIVLSHTNSVVNPFIYAYRIREFRQTFRKIIRSHVLRQQEPFKAAGTSARVLAAHGSDGEQVSLRLNGHPPGVWANGSAPHPERRPNGYALGLVSGGSAQESQGNTGLPDVELLSHELKGVSPEPPGLDDPLAQDGAGVS |  | binds
A2AR-C394L (receptor) MPIMGSSVYITVELAIAVLAILGNVLVCWAVWLNSNLQNVTNYFVVSLAAADIAVGVLAIPFAITISTGFCAACHGCLFIACFVLVLTQSSIFSLLAIAIDRYIAIRIPLRYNGLVTGTRAKGIIAICWVLSFAIGLTPMLGWNNCGQPKEGKNHSQGCGEGQVACLFEDVVPMNYMVYFNFFACVLVPLLLMLGVYLRIFLAARRQLKQMESQPLPGERARSTLQKEVHAAKSLAIIVGLFALCWLPLHIINCFTFFCPDCSHAPLWLMYLAIVLSHTNSVVNPFIYAYRIREFRQTFRKIIRSHVLRQQEPFKAAGTSARVLAAHGSDGEQVSLRLNGHPPGVWANGSAPHPERRPNGYALGLVSGGSAQESQGNTGLPDVELLSHELKGVLPEPPGLDDPLAQDGAGVS |  | binds
A2AR-C394A (receptor) MPIMGSSVYITVELAIAVLAILGNVLVCWAVWLNSNLQNVTNYFVVSLAAADIAVGVLAIPFAITISTGFCAACHGCLFIACFVLVLTQSSIFSLLAIAIDRYIAIRIPLRYNGLVTGTRAKGIIAICWVLSFAIGLTPMLGWNNCGQPKEGKNHSQGCGEGQVACLFEDVVPMNYMVYFNFFACVLVPLLLMLGVYLRIFLAARRQLKQMESQPLPGERARSTLQKEVHAAKSLAIIVGLFALCWLPLHIINCFTFFCPDCSHAPLWLMYLAIVLSHTNSVVNPFIYAYRIREFRQTFRKIIRSHVLRQQEPFKAAGTSARVLAAHGSDGEQVSLRLNGHPPGVWANGSAPHPERRPNGYALGLVSGGSAQESQGNTGLPDVELLSHELKGVAPEPPGLDDPLAQDGAGVS |  | binds
A2AR-C394M (receptor) MPIMGSSVYITVELAIAVLAILGNVLVCWAVWLNSNLQNVTNYFVVSLAAADIAVGVLAIPFAITISTGFCAACHGCLFIACFVLVLTQSSIFSLLAIAIDRYIAIRIPLRYNGLVTGTRAKGIIAICWVLSFAIGLTPMLGWNNCGQPKEGKNHSQGCGEGQVACLFEDVVPMNYMVYFNFFACVLVPLLLMLGVYLRIFLAARRQLKQMESQPLPGERARSTLQKEVHAAKSLAIIVGLFALCWLPLHIINCFTFFCPDCSHAPLWLMYLAIVLSHTNSVVNPFIYAYRIREFRQTFRKIIRSHVLRQQEPFKAAGTSARVLAAHGSDGEQVSLRLNGHPPGVWANGSAPHPERRPNGYALGLVSGGSAQESQGNTGLPDVELLSHELKGVMPEPPGLDDPLAQDGAGVS |  | binds
A2AR-C394V (receptor) MPIMGSSVYITVELAIAVLAILGNVLVCWAVWLNSNLQNVTNYFVVSLAAADIAVGVLAIPFAITISTGFCAACHGCLFIACFVLVLTQSSIFSLLAIAIDRYIAIRIPLRYNGLVTGTRAKGIIAICWVLSFAIGLTPMLGWNNCGQPKEGKNHSQGCGEGQVACLFEDVVPMNYMVYFNFFACVLVPLLLMLGVYLRIFLAARRQLKQMESQPLPGERARSTLQKEVHAAKSLAIIVGLFALCWLPLHIINCFTFFCPDCSHAPLWLMYLAIVLSHTNSVVNPFIYAYRIREFRQTFRKIIRSHVLRQQEPFKAAGTSARVLAAHGSDGEQVSLRLNGHPPGVWANGSAPHPERRPNGYALGLVSGGSAQESQGNTGLPDVELLSHELKGVVPEPPGLDDPLAQDGAGVS |  | binds
A2AR-G344ΔC (domain or fragment) MPIMGSSVYITVELAIAVLAILGNVLVCWAVWLNSNLQNVTNYFVVSLAAADIAVGVLAIPFAITISTGFCAACHGCLFIACFVLVLTQSSIFSLLAIAIDRYIAIRIPLRYNGLVTGTRAKGIIAICWVLSFAIGLTPMLGWNNCGQPKEGKNHSQGCGEGQVACLFEDVVPMNYMVYFNFFACVLVPLLLMLGVYLRIFLAARRQLKQMESQPLPGERARSTLQKEVHAAKSLAIIVGLFALCWLPLHIINCFTFFCPDCSHAPLWLMYLAIVLSHTNSVVNPFIYAYRIREFRQTFRKIIRSHVLRQQEPFKAAGTSARVLAAHGSDGEQVSLRLNGHPPG |  | binds
A2AR-P395ΔC (domain or fragment) MPIMGSSVYITVELAIAVLAILGNVLVCWAVWLNSNLQNVTNYFVVSLAAADIAVGVLAIPFAITISTGFCAACHGCLFIACFVLVLTQSSIFSLLAIAIDRYIAIRIPLRYNGLVTGTRAKGIIAICWVLSFAIGLTPMLGWNNCGQPKEGKNHSQGCGEGQVACLFEDVVPMNYMVYFNFFACVLVPLLLMLGVYLRIFLAARRQLKQMESQPLPGERARSTLQKEVHAAKSLAIIVGLFALCWLPLHIINCFTFFCPDCSHAPLWLMYLAIVLSHTNSVVNPFIYAYRIREFRQTFRKIIRSHVLRQQEPFKAAGTSARVLAAHGSDGEQVSLRLNGHPPGVWANGSAPHPERRPNGYALGLVSGGSAQESQGNTGLPDVELLSHELKGVCP |  | binds
A2AR-Q372ΔC (domain or fragment) MPIMGSSVYITVELAIAVLAILGNVLVCWAVWLNSNLQNVTNYFVVSLAAADIAVGVLAIPFAITISTGFCAACHGCLFIACFVLVLTQSSIFSLLAIAIDRYIAIRIPLRYNGLVTGTRAKGIIAICWVLSFAIGLTPMLGWNNCGQPKEGKNHSQGCGEGQVACLFEDVVPMNYMVYFNFFACVLVPLLLMLGVYLRIFLAARRQLKQMESQPLPGERARSTLQKEVHAAKSLAIIVGLFALCWLPLHIINCFTFFCPDCSHAPLWLMYLAIVLSHTNSVVNPFIYAYRIREFRQTFRKIIRSHVLRQQEPFKAAGTSARVLAAHGSDGEQVSLRLNGHPPGVWANGSAPHPERRPNGYALGLVSGGSAQ |  | binds
A2AR-V334ΔC (domain or fragment) MPIMGSSVYITVELAIAVLAILGNVLVCWAVWLNSNLQNVTNYFVVSLAAADIAVGVLAIPFAITISTGFCAACHGCLFIACFVLVLTQSSIFSLLAIAIDRYIAIRIPLRYNGLVTGTRAKGIIAICWVLSFAIGLTPMLGWNNCGQPKEGKNHSQGCGEGQVACLFEDVVPMNYMVYFNFFACVLVPLLLMLGVYLRIFLAARRQLKQMESQPLPGERARSTLQKEVHAAKSLAIIVGLFALCWLPLHIINCFTFFCPDCSHAPLWLMYLAIVLSHTNSVVNPFIYAYRIREFRQTFRKIIRSHVLRQQEPFKAAGTSARVLAAHGSDGEQV |  | binds
A2AR-P354ΔC (domain or fragment) MPIMGSSVYITVELAIAVLAILGNVLVCWAVWLNSNLQNVTNYFVVSLAAADIAVGVLAIPFAITISTGFCAACHGCLFIACFVLVLTQSSIFSLLAIAIDRYIAIRIPLRYNGLVTGTRAKGIIAICWVLSFAIGLTPMLGWNNCGQPKEGKNHSQGCGEGQVACLFEDVVPMNYMVYFNFFACVLVPLLLMLGVYLRIFLAARRQLKQMESQPLPGERARSTLQKEVHAAKSLAIIVGLFALCWLPLHIINCFTFFCPDCSHAPLWLMYLAIVLSHTNSVVNPFIYAYRIREFRQTFRKIIRSHVLRQQEPFKAAGTSARVLAAHGSDGEQVSLRLNGHPPGVWANGSAPHP | 0.19 | 
A2AR-G349ΔC (domain or fragment) MPIMGSSVYITVELAIAVLAILGNVLVCWAVWLNSNLQNVTNYFVVSLAAADIAVGVLAIPFAITISTGFCAACHGCLFIACFVLVLTQSSIFSLLAIAIDRYIAIRIPLRYNGLVTGTRAKGIIAICWVLSFAIGLTPMLGWNNCGQPKEGKNHSQGCGEGQVACLFEDVVPMNYMVYFNFFACVLVPLLLMLGVYLRIFLAARRQLKQMESQPLPGERARSTLQKEVHAAKSLAIIVGLFALCWLPLHIINCFTFFCPDCSHAPLWLMYLAIVLSHTNSVVNPFIYAYRIREFRQTFRKIIRSHVLRQQEPFKAAGTSARVLAAHGSDGEQVSLRLNGHPPGVWANG |  | binds
